Test results reported in patent US20100323906.

Tested on: XhoI
Experiment: cleavage_in_vitro
Details: 5'-dithiol on upper strand, tethered to 20 nm Au nanoparticle; rate constant at 3.5 nM enzyme (1.5e-3 s-1 at 350 pM); Mg2+ required, inhibited by 10 mM EDTA

## AAAGGATCCAAGCTTGAATTCCTCGAGAGATCTGTCGACGATATCGGTACCAAA (double strand) [54-bp ruler dsDNA]
  activity: 0.0058 s⁻¹
